Laboratory results taken from article PMC3698527.
One block for each substance: values may come before it.

What was measured:
[1] = target: HLA-DP2 with human peptide HU20 (human)
[2] = target: HLA-DP2 with human peptide HU16 (human)
[3] = target: HLA-DP2 with human peptide HU3 (human)
[4] = target: HLA-DP2 with human peptide HU31 (human)
[5] = target: HLA-DP2 with human peptide HU22 (human)
[6] = target: HLA-DP2 with human peptide HU17 (human)
[7] = target: HLA-DP2 with human peptide HU39 (human)
[8] = target: HLA-DP2 with human peptide HU9 (human)
[9] = target: HLA-DP2 with human peptide HU2 (human)
[10] = target: HLA-DP2 with human peptide HU1 (human)
[11] = target: HLA-DP2 with human peptide HU5 (human)
[12] = target: HLA-DP2 with human peptide HU19 (human)
[13] = target: HLA-DP2 with human peptide HU38 (human)
[14] = target: HLA-DP2 with human peptide HU7 (human)
[15] = target: HLA-DP2 with human peptide HU25 (human)
[16] = target: HLA-DP2 with human peptide HU35 (human)
[17] = target: HLA-DP2 with human peptide HU10 (human)
[18] = target: HLA-DP2 with human peptide HU8 (human)
[19] = target: HLA-DP2 with human peptide HU21 (human)
[20] = target: HLA-DP2 with human peptide HU15 (human)
[21] = target: HLA-DP2 with human peptide HU33 (human)
[22] = target: HLA-DP2 with human peptide HU29 (human)
[23] = target: HLA-DP2 with human peptide HU28 (human)
[24] = target: HLA-DP2 with human peptide HU11 (human)
[25] = target: HLA-DP2 with human peptide HU6 (human)
[26] = target: HLA-DP2 with human peptide HU24 (human)

IL-2 secretion of AV22 hybridoma, 0.5 µg/ml peptide, 75 µM BeSO4 [1]: 4.6 pg/mL
IL-2 secretion of AV22 hybridoma, 0.5 µg/ml peptide, 75 µM BeSO4 [2]: 4.6 pg/mL
IL-2 secretion of AV22 hybridoma, 0.5 µg/ml peptide, 75 µM BeSO4 [3]: 29.3 pg/mL
IL-2 secretion of AV22 hybridoma, 0.5 µg/ml peptide, 75 µM BeSO4 [4]: 973 pg/mL
IL-2 secretion of AV22 hybridoma, 0.5 µg/ml peptide, 75 µM BeSO4 [5]: 5.1 pg/mL
IL-2 secretion of AV22 hybridoma, 0.5 µg/ml peptide, 75 µM BeSO4 [6]: 15.6 pg/mL
IL-2 secretion of AV22 hybridoma, 0.5 µg/ml peptide, 75 µM BeSO4 [7]: 22.4 pg/mL
IL-2 secretion of AV22 hybridoma, 0.5 µg/ml peptide, 75 µM BeSO4 [8]: 21.7 pg/mL
IL-2 secretion of AV22 hybridoma, 0.5 µg/ml peptide, 75 µM BeSO4 [9]: 716 pg/mL
IL-2 secretion of AV22 hybridoma, 0.5 µg/ml peptide, 75 µM BeSO4 [10]: 997 pg/mL
IL-2 secretion of AV22 hybridoma, 0.5 µg/ml peptide, 75 µM BeSO4 [11]: 4.1 pg/mL
IL-2 secretion of AV22 hybridoma, 0.5 µg/ml peptide, 75 µM BeSO4 [12]: 4.1 pg/mL
IL-2 secretion of AV22 hybridoma, 0.5 µg/ml peptide, 75 µM BeSO4 [13]: 5.6 pg/mL
IL-2 secretion of AV22 hybridoma, 0.5 µg/ml peptide, 75 µM BeSO4 [14]: 4.1 pg/mL
IL-2 secretion of AV22 hybridoma, 0.5 µg/ml peptide, 75 µM BeSO4 [15]: 622 pg/mL
IL-2 secretion of AV22 hybridoma, 0.5 µg/ml peptide, 75 µM BeSO4 [16]: 947 pg/mL
IL-2 secretion of AV22 hybridoma, 0.5 µg/ml peptide, 75 µM BeSO4 [17]: 5.1 pg/mL
IL-2 secretion of AV22 hybridoma, 0.5 µg/ml peptide, 75 µM BeSO4 [18]: 4.6 pg/mL
IL-2 secretion of AV22 hybridoma, 0.5 µg/ml peptide, 75 µM BeSO4 [19]: 17.4 pg/mL
Substance: AV22 TCR on the T cell hybridoma AV22

IL-2 secretion of AV9 hybridoma, 0.5 µg/ml peptide, 75 µM BeSO4 [1]: 4.6 pg/mL
IL-2 secretion of AV9 hybridoma, 0.5 µg/ml peptide, 75 µM BeSO4 [3]: 75.1 pg/mL
IL-2 secretion of AV9 hybridoma, 0.5 µg/ml peptide, 75 µM BeSO4 [4]: 1040 pg/mL
IL-2 secretion of AV9 hybridoma, 0.5 µg/ml peptide, 75 µM BeSO4 [20]: 49.3 pg/mL
IL-2 secretion of AV9 hybridoma, 0.5 µg/ml peptide, 75 µM BeSO4 [5]: 4.1 pg/mL
IL-2 secretion of AV9 hybridoma, 0.5 µg/ml peptide, 75 µM BeSO4 [6]: 16.3 pg/mL
IL-2 secretion of AV9 hybridoma, 0.5 µg/ml peptide, 75 µM BeSO4 [7]: 68.7 pg/mL
IL-2 secretion of AV9 hybridoma, 0.5 µg/ml peptide, 75 µM BeSO4 [21]: 954 pg/mL
IL-2 secretion of AV9 hybridoma, 0.5 µg/ml peptide, 75 µM BeSO4 [8]: 48.6 pg/mL
IL-2 secretion of AV9 hybridoma, 0.5 µg/ml peptide, 75 µM BeSO4 [9]: 966 pg/mL
IL-2 secretion of AV9 hybridoma, 0.5 µg/ml peptide, 75 µM BeSO4 [10]: 1120 pg/mL
IL-2 secretion of AV9 hybridoma, 0.5 µg/ml peptide, 75 µM BeSO4 [11]: 4.6 pg/mL
IL-2 secretion of AV9 hybridoma, 0.5 µg/ml peptide, 75 µM BeSO4 [12]: 4.6 pg/mL
IL-2 secretion of AV9 hybridoma, 0.5 µg/ml peptide, 75 µM BeSO4 [22]: 4.6 pg/mL
IL-2 secretion of AV9 hybridoma, 0.5 µg/ml peptide, 75 µM BeSO4 [23]: 4.6 pg/mL
IL-2 secretion of AV9 hybridoma, 0.5 µg/ml peptide, 75 µM BeSO4 [13]: 5.1 pg/mL
IL-2 secretion of AV9 hybridoma, 0.5 µg/ml peptide, 75 µM BeSO4 [15]: 847 pg/mL
IL-2 secretion of AV9 hybridoma, 0.5 µg/ml peptide, 75 µM BeSO4 [24]: 5.6 pg/mL
IL-2 secretion of AV9 hybridoma, 0.5 µg/ml peptide, 75 µM BeSO4 [25]: 4.1 pg/mL
IL-2 secretion of AV9 hybridoma, 0.5 µg/ml peptide, 75 µM BeSO4 [16]: 1040 pg/mL
IL-2 secretion of AV9 hybridoma, 0.5 µg/ml peptide, 75 µM BeSO4 [26]: 4.6 pg/mL
IL-2 secretion of AV9 hybridoma, 0.5 µg/ml peptide, 75 µM BeSO4 [19]: 48.8 pg/mL
Substance: AV9 TCR on the T cell hybridoma AV9
